Results reported in the RNAGym collection of RNA variant scans (doi:10.1073/pnas.2313332121).

B1: TPR t1 (parent)
chain: GACCAAUCUGCCCUCAGAGCUCGAGAACAUCUUCGGAUGCAGAGGAGGCAGGCUUCGGUGGCGCGAUAGCGCCAACGUCCUCAACCUCCAAUGCAUCCCACCACAUGAUGAUGCCUGAAGAGCCUUGGUUUUUUG

Variants of: B1
Test: polymerase ribozyme fitness, log enrichment relative to wild type (log ratio); higher = more active; in vitro selection for triplet polymerase activity
In short: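 Each subunit of a heterodimeric triplet polymerase ribozyme was mutagenized into a library by PCR, transcribed, and subjected to one round of in vitro selection, run in triplicate. Libraries were annealed with a biotinylated primer, the partner subunit and triplets, incubated frozen at −7 °C, and extended constructs were gel-excised, captured on streptavidin beads and recovered by RT-PCR. Input and output libraries were sequenced on Illumina, keeping genotypes with ≥10 input reads and ≥1 read per output. Fitness is log base 2 of genotype enrichment divided by wild-type enrichment, from inverse-variance-weighted replicate averages.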

Variant	polymerase ribozyme fitness (log ratio)
C34A C89U G117U	-5.32
A29G A37G C88U A111C	-0.788
A29U C53U C72G A83U U96A	-4.12
C31U A37G C115A	-4.73
U30G U54A U112C	-5.05
A29G C62A	-2.33
A29U C94A C102G U109C U130C	-6.22
A29U C56U A74U A100C	-3.55
U33C C99U C123A	-7.51
U33C C62U C99U C115U	-6.64
C34G A74U A90C U112G	-6.64
C34A C72U C85A G113A	-5.11
A29U C62G U81C A100U C124A	-3.66
U32C C40A	-0.464
U32C C56U	0.1
U32C A41U G45C C115G	-5.44
C34A C53A	-2.86
U32C G69C	-2.01
C34G A41C C56A A66U C115A	-7.59
A29U A46G C115G	-2.96
C31U C94A C114U	-5.92
C34A C76A	-4.09
C34A C88A U106C C114A	-6.05
A29U C70G	-3.31

Variant	polymerase ribozyme fitness (log ratio)
C34G A83G	-6.49
C34A C62U C85G U130C	-2.75
C31A A43G U59G C98G A100G A111G	-6.13
C34A C123A	-2.18
A29G C97A	-5.53
U32C G39A G42A G52A C70U C88G	-3.93
C31U G36U G60C C73U C123U	-4.81
C31G G69U A111C U112A G117A	-6.69
A29U G52C C73G U129A	-4.18
C34A U54A G69U A121G	1.52
C31A G57A C73U	-6.14
U33A C56A	-4.57
U30A A37U	-4.9
U30C C40U G120C	-2.45
U33A A46U C97A	-6.45
U33C A37C	-6.92
C31A G61A C88U	-5.76
C34A C62A	-4.45
C31U G71U C124G	-3.59
C34A G135U	-3.05
U33G C124G	-4.16
U32A A46C C64U U78G	-4.98
U33A G57U C124A U126A	-3.51
U33A C53A C62U	-5.53

Variant	polymerase ribozyme fitness (log ratio)
A29C G44C U92C	-5.1
A29G A95G	-1.84
U30A G48C C124A	-5.2
C31G U109G C114G	-6.93
U33A G58A	-5.07
U30A G48C G57A C124G	-4.73
C31U G61U A91C	-5.51
U32C G42A G69U	-0.00577
U32C G60C U106A G113A C124U	-3.04
A29U G117C	-3.48
A29U C53A U129G	-2.03
U33G U55A	-4.84
U33G C70U G120U	-6.7
U30C G45U	-4.52
C34G A46C U106A G110A U130G U131A	-5.46
A29U G51C G120U	-3.96
U32C C40U C124A	1.21
A29U C56U C73U	-1.33
C34A G60A A103G C124U G135A	-5.23
U32G C49A G63C G117A	-6.8
A29U C56G G58C G77A C88U G120C C123G U129A	-5.14
A29U G58A U106A	-1.28
C31U G127C	-3.6
C34A C101G U129A	-4.66

Variant	polymerase ribozyme fitness (log ratio)
A29U A119G	-0.662
U33C C62U	-5.05
C31U U96G	-5.37
A29G G47A U55A C56G	-2.62
A29G A105C	-7.42
U32C C85G	-2.56
U32C G48U C56A G71U U112G	-4.24
U30G A95C U96C A105U A111C G120C	-6.71
A29G A90C U92C	-3.09
C31U U112A G113A	-4.76
U30G G48A C49U C62U C85A A121G	-6.22
U33A U87A U133G	-4.32
A29U G69U C123A	-0.777
A29G G69A A75U C104U U112G	-4.35
A29G G69C G120A	-2.54
C31U G36A G61A U87A U106A	-2.2
A29G C73A C76A	-3.61
A29G A43C	-3.7
C31G U112A	-5.33
C31U G71U G120U	-4.2
U32A G61U	-2.74
U32C G63U G113U	-4.99
A29G G51U U55A G57U	-3.55
U30C G52C	-3.38

Variant	polymerase ribozyme fitness (log ratio)
C31G C94G G113A	-5.38
C31G G39U C72A U106A G120U	-6.88
A29U G61C C72A	-1.68
C31U G120C	-2.93
U33C A90C	-6.14
U30C C62U U78C	-3.36
A29G U130G	-1.15
C31U U78C	-5.28
U32C A83G U87A U106A	-2.71
C34A C104U	-2.35
C31U C85G	-5.19
C34A G60A C72G C88U	-6.11
A29U G61A C73U	-1.74
U33G G69C C80G A91C U92A C101U C115G	-7.68
A29G C73U C114A	-1.97
A29U G45A G47U	-4.18
U33C A46C	-6.49
C31U A37U	-4.07
U32G C70U	-7.16
A29U G48A G63C A111C	-2.36
U32G A119U	-6.21
A29G G48U G57C C73U	-1.71
C34A U55G G77A	-4.67
U33G U130A	-5.01

Variant	polymerase ribozyme fitness (log ratio)
C34A A74C C89G G113C A118C U131A	-5.57
C31A C56A C98A	-5.09
A29U C79A	-3.06
U32C C64U G93A C114G U134G	-2.93
C34G A90C U112G	-6.02
C34A G44C G69U C88A A91C G110A	-4.87
U32G A37G A74G A111U U133C	-5.3
C34A C82U C97G	-3.48
C34A U54G C94U	-2.75
A29G C101G	-4.66
A29G C49A	-1.64
A29G C56U	-1.17
A29G G61U C85A C102U	-5.28
U33A G51A C72U U112A	-6.67
C31G C62U C114G G127U	-6.54
A29G C31G G63A A100U A121C	-7.06
U32A A74C C114G	-4.4
C31A C72U C123A U125G U129A U133G	-6.38
A29U C98U	-3.59
U32A G48A C62U C97U A100U	-7.37
U32G C34G C64U C85A G110U	-6.37
A29C G57A C62U	-3.66
C34A G60A C115U	-5.48
C31U G63A	-5.33

Variant	polymerase ribozyme fitness (log ratio)
C31U G36U C73U C82A C86G G113U U133A	-6.04
A29G U87A	-1.67
A29G G63C C104U U106G	-1.63
A29U G42C G69U A119U	-2.46
C31U G36U G60C C123U	-5.45
U32A A46U U54A G57C G58C C70U A121G	-6.21
C31U U81A C88G A95U U112A	-6.66
C34A C82A U112A	-2.63
C31G C70U C82G G117C	-7.1
U33A C72G	-5.17
U33A C72G A74C G127C	-7.04
U30A U112C	-2.73
C31A C73G	-5.21
C31A G69U	-2.98
A29G A46U G69U C86U	-2.23
U32C A119G	0.645
C31U G60U	-4.38
U32A C70U C115G	-5.23
C31G C72A	-6.86
C34A C85A G113A	-4.78
U32C A74G G128C	-2.08
A29C G61A A75U	-1.75
A29U G63A	-2.41
